Laboratory results as given in patent publication US20210009993A1 (ROCHE DIAGNOSTICS OPERATIONS, published 2021).

Target: T1, human cardiac troponin T (cTnT) (human, UniProt P45379 2-298)
T1 construct: also called Recombinant human TnT (Roche, 37 kDa)
Experiment: SPR, Biacore T200, 37 C; Fab captured via anti-human F(ab')2, cTnT analyte
Experimental: Detailed kinetic investigations were performed at 37° C. on a GE Healthcare T200 instrument. A Biacore CM-5 series S sensor was mounted into the instrument and was preconditioned according to the manufacturer's instructions. The system buffer was HBS-ET (10 mM HEPES (pH 7.4), 150 mM NaCl, 1 mM EDTA, 0.05% (w/v) Tween® 20). The sample buffer was the system buffer supplemented with 1 mg/ml CMD (Carboxymethyldextran, Fluka). In one embodiment an anti-human antibody capture system was established on the CMS biosensor. GAHF(ab′)2, (goat anti human F(ab′)2) (Code Nr.: 109-005-097, lot #13.12.2005, Jackson Immuno Research) was immobilized according to the manufacturer's instructions using NHS/EDC chemistry. 30 μg/ml GAHF(ab′)2 in 10 mM sodium acetate buffer (pH 5.0) were preconcentrated to the flow cells 1, 2, 3 and 4 and were immobilized with 10.000 RU GAHF(ab′)2. The sensor was subsequently saturated with 1 M ethanolamine pH 8.5.
Chimeric anti-TnT antibody fragments were periplasmatically expressed in E. coli cells as described and were lyzed by methods known (for technical details see: Andersen, D. C. & Reilly, D. E. (2004); Production technologies for monoclonal antibodies and their fragments. Curr Opin Biotechnol 15, 456-62). The lysates were diluted 1:20 in sample buffer. Fab fragments were captured via their humanized framework regions from the expression lysates on the biosensor at a flow rate of 10 μl/min for 1 min followed by a 2 min washing step with 10-fold concentrated HBS-EP buffer at 30 μl/min. The Fab fragment capture level (CL) in response units (RU) was monitored. Recombinant human TnT (Roche, 37 kDa) was diluted in sample buffer at 90 nM and a concentration series was produced with […], 30 nM, 11 nM, 3.3 nM, 1.1 nM, 0 nM, 3.3 nM TnT concentration. The analyte concentration series were 80 μl/min for 3 min association phase and the dissociation phase was monitored for 3 min.
The kinetic parameters ka [1/Ms], kd [1/s], t1/2 diss [min], KD [M] and the binding stoichiometry (Molar Ratio) (for details see: Schraeml, M. & Biehl, M. (2012); Kinetic screening in the antibody development process. Methods Mol Biol 901, 171-81.) of the cTnT analyte were determined for each Fab fragment mutant with the Biaevaluation Software (GE healthcare) according to the manufacturer's instructions.

Kd | Binder | further results
0.61 nM | anti-cTnT Fab fragment, CDR combination 1 (Y34F) (Fab, V domains shown, tested from E. coli lysate; also called mutant 1) VH: EVQLQQSGPELVKPGASVKMSCKASGYTFTDYFMKWVKQSHGKSLEWIGDINPNNGETFYNQKFKDKATLTVDKSSSTAYMQLNSLTSEDSAVYYCATRVFDYWGQGTTLTVSS VL: DIVLTQSPASLAVSLGQRATISCKASQSVDYDGTSYMNWFQQKAGQPPKRLIYAASNLESGIPARFSGRGSGTDFALNIHPVEEEDAATYYCQQSNEDPYTFGGGTKLEIKR | 
 | anti-cTnT Fab fragment, CDR combination 9 (Y34I) (Fab, V domains shown, tested from E. coli lysate; also called mutant 9) VH: EVQLQQSGPELVKPGASVKMSCKASGYTFTDYIMKWVKQSHGKSLEWIGDINPNNGETFYNQKFKDKATLTVDKSSSTAYMQLNSLTSEDSAVYYCATRVFDYWGQGTTLTVSS VL: DIVLTQSPASLAVSLGQRATISCKASQSVDYDGTSYMNWFQQKAGQPPKRLIYAASNLESGIPARFSGRGSGTDFALNIHPVEEEDAATYYCQQSNEDPYTFGGGTKLEIKR | MR (Molar Ratio): 0.6
0.48 nM | anti-cTnT Fab fragment, CDR combination 19 (Y104F) (Fab, V domains shown, tested from E. coli lysate; also called mutant 19) VH: EVQLQQSGPELVKPGASVKMSCKASGYTFTDYYMKWVKQSHGKSLEWIGDINPNNGETFYNQKFKDKATLTVDKSSSTAYMQLNSLTSEDSAVYYCATRVFDFWGQGTTLTVSS VL: DIVLTQSPASLAVSLGQRATISCKASQSVDYDGTSYMNWFQQKAGQPPKRLIYAASNLESGIPARFSGRGSGTDFALNIHPVEEEDAATYYCQQSNEDPYTFGGGTKLEIKR | 
 | anti-cTnT Fab fragment, CDR combination 21 (F60W, V101Y) (Fab, V domains shown, tested from E. coli lysate; also called mutant 21) VH: EVQLQQSGPELVKPGASVKMSCKASGYTFTDYYMKWVKQSHGKSLEWIGDINPNNGETWYNQKFKDKATLTVDKSSSTAYMQLNSLTSEDSAVYYCATRYFDYWGQGTTLTVSS VL: DIVLTQSPASLAVSLGQRATISCKASQSVDYDGTSYMNWFQQKAGQPPKRLIYAASNLESGIPARFSGRGSGTDFALNIHPVEEEDAATYYCQQSNEDPYTFGGGTKLEIKR | t/2-diss: 3 min
